Test results from patent CN111171151A (FOSHAN CANTON BIOTECHNOLOGY CO LTD; UNIV JINAN, dated 2020).

What was measured:
[1] = biological target: T1, EGFR-ECD 3 重组蛋白 (EGFR胞外段结构域3) (UniProt P00533 334-504, limits assumed); assay: ELISA, coated EGFR-ECD3 100 ng/well, NbH3 from 40 μg/mL in 1:2 dilutions
T1 construct: domain: EGFR胞外段结构域3 (EGFR-ECD 3); Secreted from transiently transfected 293F cells (pCMV-EGFR-ECD3) and purified on a nickel column; also called EGFR胞外段的CD3区域片段; EGFR-ECD 3 纯化蛋白; not shown: purified on a nickel column, detected with anti

[2] = biological target: T1, EGFR-ECD 3 重组蛋白 (EGFR胞外段结构域3); assay: ELISA, coated proteins 100 ng/well (EGFR-ECD3 against EGF, bFGF, Her2), anti-HA detection

B1: 抗EGFR纳米抗体 Nb H3 (VHH)
VHH: QVQLQESGGGSVQAGGSLNLSCAVSGYTGCKNGMSWYRQAPGKEREFVSGIDRDGSPSYADSVKGRFTISQDNAKNIVFLQMNSLRPEDTAMYYCATNPQRNIYGGSWCNYWGQGTQVTVSS
notes: From a Bactrian camel immunised with EGFR-ECD3; expressed in E. coli WK6 from the pComb-3X plasmid and purified on a nickel column; not shown: tags from the pComb-3X vector (purified on a nickel column, detected with anti-H)
[1]
  EC50: 8.76 µg/mL
[2]
  ratio of binding (OD) against the other control proteins: > 2
